In patent US20230038883A1, “SPECIFIC HOST FACTOR OF HEPATITIS B VIRUS INFECTION, AND USE THEREOF” (priority 2020, published 2023):

T1: SCARF2 EGF4-6 proteins (Homo sapiens, UniProt Q96GP6)
T1 construct: Precision (protease site) tag (internal); human Fc tag (IgG1) (C); made in house; host or cells: 293F cells (pCAGGs vector), purified with Protein A beads
T1 sequence (Q96GP6 183-270): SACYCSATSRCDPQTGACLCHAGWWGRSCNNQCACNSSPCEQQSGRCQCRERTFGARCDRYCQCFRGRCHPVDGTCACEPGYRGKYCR

B1: CREBH-211-318: truncated form of CREBH, residues 211-318, SEQ ID NO:4, expresses only the bZIP domain (protein)
chain: QELVLTEDEKKLLAKEGITLPTQLPLTKYEERVLKKIRRKIRNKQSAQESRKKKKEYIDGLETRMSACTAQNQELQRKVLHLEKQNLSLLEQLKKLQAIVVQSTSKSA
B2: CREBH: cAMP-responsive element-binding protein, hepatocyte specific; SEQ ID NO:1; expressed by lentiviral transduction (protein, listed as Homo sapiens)
chain: MNTDLAAGKMASAACSMDPIDSFELLDLLFDRQDGILRHVELGEGWGHVKDQQVLPNPDSDDFLSSILGSGDSLPSSPLWSPEGSDSGISEDLPSDPQDTPPRSGPATSPAGCHPAQPGKGPCLSYHPGNSCSTTTPGPVIQVPEASVTIDLEMWSPGGRICAEKPADPVDLSPRCNLTVKDLLLSGSSGDLQQHHLGASYLLRPGAGHCQELVLTEDEKKLLAKEGITLPTQLPLTKYEERVLKKIRRKIRNKQSAQESRKKKKEYIDGLETRMSACTAQNQELQRKVLHLEKQNLSLLEQLKKLQAIVVQSTSKSAQTGTCVAVLLLSFALIILPSISPFGPNKTESPGDFAPVRVFSRTLHNDAASRVAADAVPGSEAPGPRPEADTTREESPGSPGADWGFQDTANLTNSTEELDNATLVLRNATEGLGQVALLDWVAPGPSTGSGRAGLEAAGDEL
B3: SCARF2: Scavenger receptor family F protein, SEQ ID NO:8, overexpressed in HepG2-NTCP cells (protein, listed as Homo sapiens)
chain: MEGAGPRGAGPARRRGAGGPPSPLLPSLLLLLLLWMLPDTVAPQELNPRGRNVCRAPGSQVPTCCAGWRQQGDECGIAVCEGNSTCSENEVCVRPGECRCRHGYFGANCDTKCPRQFWGPDCKELCSCHPHGQCEDVTGQCTCHARRWGARCEHACQCQHGTCHPRSGACRCEPGWWGAQCASACYCSATSRCDPQTGACLCHAGWWGRSCNNQCACNSSPCEQQSGRCQCRERTFGARCDRYCQCFRGRCHPVDGTCACEPGYRGKYCREPCPAGFYGLGCRRRCGQCKGQQPCTVAEGRCLTCEPGWNGTKCDQPCATGFYGEGCSHRCPPCRDGHACNHVTGKCTRCNAGWIGDRCETKCSNGTYGEDCAFVCADCGSGHCDFQSGRCLCSPGVHGPHCNVTCPPGLHGADCAQACSCHEDTCDPVTGACHLETNQRKGVMGAGALLVLLVCLLLSLLGCCCACRGKDPTRRPRPRRELSLGRKKAPHRLCGRFSRISMKLPRIPLRRQKLPKVVVAHHDLDNTLNCSFLEPPSGLEQPSPSWSSRASFSSFDTTDEGPVYCVPHEEAPAESRDPEVPTVPAEAPAPSPVPLTTPASAEEAIPLPASSDSERSASSVEGPGGALYARVARREARPARARGEIGGLSLSPSPERRKPPPPDPATKPKVSWIHGKHSAAAAGRAPSPPPPGSEAAPSPSKRKRTPSDKSAHTVEHGSPRTRDPTPRPPGLPEEATALAAPSPPRARARGRGPGLLEPTDAGGPPRSAPEAASMLAAELRGKTRSLGRAEVALGAQGPREKPAPPQKAKRSVPPASPARAPPATETPGPEKAATDLPAPETPRKKTPIQKPPRKKSREAAGELGRAGAPTL
B4: CREBH-122-318: truncated form of CREBH, residues 122-318, SEQ ID NO:3 (protein)
chain: MCLSYHPGNSCSTTTPGPVIQVPEASVTIDLEMWSPGGRICAEKPADPVDLSPRCNLTVKDLLLSGSSGDLQQHHLGASYLLRPGAGHCQELVLTEDEKKLLAKEGITLPTQLPLTKYEERVLKKIRRKIRNKQSAQESRKKKKEYIDGLETRMSACTAQNQELQRKVLHLEKQNLSLLEQLKKLQAIVVQSTSKSA

Columns and labels:
[1] = target: T1, SCARF2 EGF4-6 proteins; assay: immunoprecipitation of biotin labeled preS1 polypeptides with SCARF2 EGF4-6; format: binding
Text: Compared with SVPs, the virus particles were rich in L protein, and the main functional segment of L protein was the preS1 segment; it was therefore speculated that the SCARF2 EGF4-6 proteins interact with the preS1 segment of the L protein of the virus. […] The C-terminus of each of the synthesized peptides was biotin labeled.

[2] = target: polypeptide containing amino acids 69-108 of preS1 (peptide^69-108) (hepatitis B virus); assay: ForteBio Octet (BLI), biotin-labeled peptide
[3] = target: polypeptide containing amino acids 69-108 of preS1 (peptide^69-108) (hepatitis B virus); assay: ForteBio Octet; sensorgrams at 200, 100, 50 and 25 µg/mL
[4] = test system: HBV; assay: HBV infection of HepG2-NTCP cells transduced with CREBH and truncated forms (ELISA, HBcAg staining); format: cell-based; conditions: transduced before infection; for HBV infection efficiency (ELISA): 1% PEG and 5% PEG, compared with PWPI-B empty control
Description: HepG2-NTCP cells were transduced with lentivirus embedded with CREBH and truncated forms thereof. After 24 hours, the cells were re-seeded in a culture plate, and the culture medium was changed to PMM. After 24 hours, the cells were infected with HBV in the presence of 1% PEG and 5% PEG respectively. Supernatant was collected every 2 days and assayed using an ELISA kit.
HBcAg staining was also performed in the experiments, and results were consistent with the ELISA results. […] It was thus speculated that these two truncated forms might have exerted a dominant-negative effect.

[5] = test system: SCARF2 gene; assay: SCARF2 expression after transduction of CREBH and truncated forms (mRNA sequencing, quantitative PCR); format: cell-based; conditions: HepG2-NTCP cells transduced
Text: Since the results of the infection occurred after the transduction of truncated forms of CREBH indicate that the transcriptional activation function of CREBH is necessary for enhancement of the infection, and the shortest functional truncated form CREBH-122-318 is localized on the nucleus, it is inferred that it is by activating a downstream gene that CREBH enhances HBV entry. In order to more accurately determine the downstream major gene, HepG2-NTCP cells transduced with CREBH, CREBH-122, CREBH-307, CREBH-122-318, CREBH-211-318, PWPI-B, and PMM were selected and used for transcriptome sequencing experiments. Meanwhile, CREBH siRNA-2 was selected and used to knock down CREBH in HepG2-NTCP cells. siNC was used as a negative control. Changes in transcriptomes were detected.
The same conclusion was also made from subsequent experiments using quantitative PCR, and the expression levels of SCARF2 were completely consistent with the enhancement effects of CREBH and its various truncated forms on HBV infection observed in the previous text.

[6] = test system: APOA4 gene; assay: relative expression of APOA4 after transduction of truncated forms into HepG2-NTCP cells; format: cell-based
Description: In order to detect whether each truncated form still had transcriptional activation ability, experiments were conducted by using the activation of APOA4 gene reported in the literature as an indicator of the transcriptional activation ability of CREBH. After the truncated forms were transduced into HepG2-NTCP cells, relative expression of APOA4 was detected. […] CREBH-C also had relatively high activation efficiency, which however was about ⅓ of the activation efficiency of the full-length CREBH.

[7] = test system: NTCP mRNA; assay: NTCP mRNA level under CREBH overexpression; format: cell-based; conditions: overexpression in HepG2-NTCP
Text: NTCP is a key receptor in HBV infection and can directly bind to the PreS1 region on the virus. Many factors capable of affecting HBV infection may indirectly affect HBV infection by affecting the expression level or cellular localization of NTCP. In order to detect whether CREBH enhances HBV infection by affecting NTCP, changes in NTCP mRNA level under the condition of overexpressing CREBH was first detected.

[8] = test system: hepatitis D virus (HDV); assay: HDV infection; format: cell-based
Text: This phenomenon can be explained and discussed from the following aspects. First, the present invention finds that HDV infection is more dependent on the expression of NTCP on the cell membrane than HBV infection, and HDV infection can occur more easily at a low PEG concentration. Although HDV and HBV have the same viral outer membrane, HDV can be assembled in the absence of L protein. […] Second, SCARF2 contains, at its C-terminus, a signal that can lead to its localization to the nuclear membrane, and a mutant with deletion of the C-terminal Proline-rich domain cannot enhance the infection.

[9] = test system: HBV; assay: cDNA library screening by HBV infection of HepG2-NTCP cells in 1% PEG; format: cell-based
Description: The cDNA library was prepared by packaging lentivirus, with HepG2-NTCP cells expressing the cDNA clones being packaged therein. After 24 hours, infection was conducted with HBV at a same tier in the presence of 1% PEG. Culture supernatant was collected every 2 days, and was tested with HBeAg and HBsAg kits.

[10] = test system: HBV; assay: HBV infection of HepG2-NTCP cells overexpressing SCARF2; format: cell-based
Description: FIGS. 8A, 8B, and 8C are schematic diagrams showing the effects of transduction of SCARF2 on infection in Example 6. (FIG. 8A) HepG2-NTCP cells were transduced with SCARF2, CREBH-122, or PWPI, and then infected with HBV in the presence of 1% PEG. (FIG. 8B) HepG2-NTCP cells were transduced with SCARF2, CREBH-122, or PWPI, and then infected with HBV in the presence of 5% PEG. (FIG. 8C) Nuclear and cytoplasmic fractions of the cells at 0 hour, 6 hours, 24 hours, and 72 hours after infection were isolated, and content of HBV DNA in each of the fractions was detected by southern-blot.
In the present invention, SCARF2 was first overexpressed in HepG2-NTCP cell line to test the effects of SCARF2 on HBV infection. […] Meanwhile, from HepG2-NTCP cell line stably expressing SCARF2, HBV DNA was isolated for analysis from the cytoplasm and the nucleus at different time points of HBV infection.

[11] = HepG2-NTCP stably expressing SCARF2, southern-blot

Chain of polypeptide containing amino acids 69-108 of preS1 (peptide^69-108) (hepatitis B virus) (P03138 69-108): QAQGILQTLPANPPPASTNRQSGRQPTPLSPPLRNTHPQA

Molecule | expression of SCARF2 [5] | HBV infection efficiency (ELISA) [4] | activation of APOA4 gene (relative expression) [6] | NTCP mRNA level [7] | HDV infection [8] | further results
CC[C@H](C)[C@H](NC(=O)CNC(=O)[C@H](CCC(N)=O)NC(=O)[C@H](C)NC(=O)[C@@H](N)CCC(N)=O)C(=O)N[C@@H](CC(C)C)C(=O)N[C@@H](CCC(N)=O)C(=O)N[C@H](C(=O)N[C@@H](CC(C)C)C(=O)N1CCC[C@H]1C(=O)N[C@@H](C)C(=O)N[C@@H](CC(N)=O)C(=O)N1CCC[C@H]1C(=O)N1CCC[C@H]1C(=O)N1CCC[C@H]1C(=O)N[C@@H](C)C(=O)N[C@@H](CO)C(=O)N[C@H](C(=O)N[C@@H](CC(N)=O)C(=O)N[C@@H](CCCNC(=N)N)C(=O)N[C@@H](CCC(N)=O)C(=O)N[C@@H](CO)C(=O)NCC(=O)N[C@@H](CCCNC(=N)N)C(=O)N[C@@H](CCC(N)=O)C(=O)N1CCC[C@H]1C(=O)N[C@H](C(=O)N1CCC[C@H]1C(=O)N[C@@H](CC(C)C)C(=O)N[C@@H](CO)C(=O)N1CCC[C@H]1C(=O)N1CCC[C@H]1C(=O)N[C@@H](CC(C)C)C(=O)N[C@@H](CCCNC(=N)N)C(=O)N[C@@H](CC(N)=O)C(=O)N[C@H](C(=O)N[C@@H](Cc1c[nH]cn1)C(=O)N1CCC[C@H]1C(=O)N[C@@H](CCC(N)=O)C(=O)N[C@@H](C)C(=O)O)[C@@H](C)O)[C@@H](C)O)[C@@H](C)O)[C@@H](C)O [peptide^69-108] |  |  |  |  |  | binding to SCARF2 EGF4-6 proteins [1]: specifically bound
SCARF2 EGF4-6 protein (from UniProt Q96GP6 183-270) (Fc fusion) |  |  |  |  |  | Kd [2]: 58 nM; koff [3]: 0.000289 s⁻¹; kon [3]: 4970 M⁻¹ s⁻¹
B1 | does not lead to a change in SCARF2 expression |  |  |  |  | HBV infection (HBcAg staining, consistent with ELISA) [4]: to some certain extent inhibited the infection
B2 | can up-regulate the expression of SCARF2 gene, but not to a very significant level | increase the infection efficiency | strongest activation effect | slightly down-regulated | neither of CREBH and SCARF2 can enhance | number of HBcAg-positive cells ([9]; HBcAg staining): remarkably increases; HBV infection (HBeAg, HBsAg in supernatant) ([9]; HepG2-NTCP cells expressing cDNA clone, 1% PEG): remarkably enhances HBV infection
B3 |  |  |  |  | neither of CREBH and SCARF2 can enhance | HBV infection ([10]; 1% PEG or 5% PEG): can enhance HBV infection; HBV DNA in fractions of the cytoplasm [10, 11]: slightly increased; rcDNA and cccDNA in fractions of the nucleus [10, 11]: significantly increased
B4 | significantly up-regulates SCARF2 | increase the infection efficiency | capable of activating APOA4 gene to some extent | slightly down-regulated |  | 
